Results on 1 molecule are retold here after article PMC12747287, “Human O-GlcNAcase catalytic-stalk dimer anchors flexible histone binding domains” (Research Square, 2025).

This experiment has as its target T1, full length human O-GlcNAcase, long isoform (OGA-L) (human, UniProt O60502 1-916).
T1 construct: human O-GlcNAcase, long isoform (OGA-L), 103 kDa, full length; Dimer in the cryo-EM structure; The methods name an anti-c-Myc antibody beside the anti-His6 antibody; the 'C-term' tag may be c-Myc; also called hOGA; full-length OGA; source: E. coli TOP10 (pBAD/HisA, codon optimized), purified (Talon resin for the arrays; HisTrap and size-exclusion chromatography for cryo-EM); not shown: His6, …
T1 sequence (looked up): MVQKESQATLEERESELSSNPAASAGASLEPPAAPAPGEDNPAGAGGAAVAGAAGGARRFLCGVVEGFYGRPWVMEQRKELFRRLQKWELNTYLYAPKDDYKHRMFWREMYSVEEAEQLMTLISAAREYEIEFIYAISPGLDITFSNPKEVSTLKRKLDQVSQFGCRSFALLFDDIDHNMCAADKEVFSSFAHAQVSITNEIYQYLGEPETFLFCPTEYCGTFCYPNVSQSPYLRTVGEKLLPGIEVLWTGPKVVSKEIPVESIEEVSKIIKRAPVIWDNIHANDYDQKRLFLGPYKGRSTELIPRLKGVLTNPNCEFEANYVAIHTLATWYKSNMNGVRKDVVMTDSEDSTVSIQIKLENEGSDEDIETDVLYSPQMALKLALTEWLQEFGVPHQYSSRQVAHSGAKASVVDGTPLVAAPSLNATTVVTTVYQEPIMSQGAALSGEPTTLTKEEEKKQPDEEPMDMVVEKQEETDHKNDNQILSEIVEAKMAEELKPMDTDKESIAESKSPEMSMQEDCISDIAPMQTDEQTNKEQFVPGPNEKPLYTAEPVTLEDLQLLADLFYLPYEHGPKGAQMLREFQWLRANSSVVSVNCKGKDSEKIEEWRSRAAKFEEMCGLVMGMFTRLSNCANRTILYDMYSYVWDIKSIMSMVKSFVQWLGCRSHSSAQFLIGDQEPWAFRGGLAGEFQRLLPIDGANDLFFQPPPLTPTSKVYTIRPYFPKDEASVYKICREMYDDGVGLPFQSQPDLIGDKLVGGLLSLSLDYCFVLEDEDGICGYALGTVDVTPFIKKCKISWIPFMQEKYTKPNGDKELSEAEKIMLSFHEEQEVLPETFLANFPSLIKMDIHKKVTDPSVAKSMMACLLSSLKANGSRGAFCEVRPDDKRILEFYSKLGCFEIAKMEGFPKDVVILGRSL
The experiment in a line: peptide or protein array; Active Motif MODified Histone Peptide Array (384 modified histone peptides in duplicate, on the array); 100 nM protein in 20 mM Tris pH 7.5, 1 mM DTT, 0.5 mg/mL BSA, RT 1 hour; detected by anti-His6 antibody (also C-term tag antibody) and IR-800 secondary antibody. As to conditions: both partners purified.

B1: histone H4 1-19 peptide, K5,8,12,16Ac (peptide, UniProt P62805 2-20, looked up)
peptide: SGRGKGGKGLGKGGAKRHR
modifications: acetyl-lysine at K5, K8, K12 and K16
notes: histone H4 tail peptide, residues 1-19; also called H4 1-19 K5,8,12,16Ac; H4K^5,8,12,16Ac; source: bought: Active Motif MODified Histone Peptide Array (peptide on the array)
For the molecule B1, the binding result is “binds”.
